B1: anti-GST VHH clone No. 75, protein A-fused type (VHH, not shown: large carriers)
VHH: AVQLVDSGGGSVQAGGSLRLSCAASGTTYCTYDIAWYRQAPEKDYEFVSVIDSDGSTRYADSVKGRFTISRDNAKNTVYLQMNSLKPEDTAMYYCKTVFKSWCSDGLGTTLPNYWGQGTQVTVSS
B2: anti-GST VHH clone No. 29, protein A-fused type (VHH, not shown: large carriers)
VHH: EVQLVESGGGSVQAGGSLKLSCGLSGYTSSMNAMGWFRQAPGKEREGVAAVSRGGKAYYADSVKGRFTVSRDNVKNTVDLQMKGLKAEDTATYYCAATDESPLRRRFSLLDRRRYDWWGRGTQVFVSS
B3: anti-LDH VHH clone No. 426, protein A-fused type (VHH)
VHH: EVQLVESGGGSVQAGGSLRLSCAAPGNTYSTNLMGWFRQAPGKEREGVAAICCGRGTTFYADSVKGRFTISQDNAKKMVYLQMELLRPEDTGIYYCASGSVRGIWSGTSQYKYWGQGTQVTVSS
notes: not shown: protein A part of the vector after SalI digestion and self-ligation
B4: anti-LDH VHH clone No. 415, protein A-fused type (VHH)
VHH: DVQLVESGGGSEQAGGSLRLSCAAPNITYCTGDRSWYRQAPGKEREFVSSINNDGTASYADSVKGRFTISQDIVKKSVYLRMNSLKPEDTAMYYCKTDFVDGTWCAIKFGRTHWGQGTQVTVSS
notes: as for B3
B5: anti-LDH VHH clone No. 434, protein A-fused type (VHH)
VHH: EVQLVESGGGSVQAGGSLRLSCAASGYTSGRNYMAWFRQAPGKEREGVGRIYSTGGSARYADSVKGRFTISQDLSNDTMYLQMNNLKPEDTGMYYCAAGKPYGDMLDARGYKYWGHGTQVTVSS
notes: as for B3
B6: anti-LDH VHH clone No. 430, protein A-fused type (VHH)
VHH: EVQLVESGGDSVQAGGSLRLSCVASSSTYSGNCMAWFRQAPGKEREGVAVVYTDDDTTYYADSVKGRFTISQDTAKNTLYLQMNSLKPEDTAMYYCATRDAWRRIGSWRDVAIYDYWGQGTQVTVSS
notes: as for B3
B7: anti-LDH VHH clone No. 421, protein A-fused type (VHH)
VHH: AVQLVESGGGSVQAGGFLRLSCVASVNYCMAWFRQAPGKEREGVAAINRDGRTTAYADSVKGRFTISRGNEKNTVYLLMNNLKAEDTATYYCAAYVGGSYSCGTLENDGYKYWGQGTQVTVSS
notes: as for B3
B8: anti-LDH VHH clone No. 418, protein A-fused type (VHH, not shown: large carriers)
VHH: EVQLVESGGGSVQAGDSLRLSCTTSGFTFANSVMVWYRQGSGNECKLVSSISTDGTTYYSTSVKGRFTISRDNAKNTVYLQMNNLKAEDTAMYYCAADFQASTVGRCDGYGYAKWGQGTQVTVSS
B9: anti-LDH VHH clone No. 407, protein A-fused type (VHH)
VHH: AVQLVESGGGSVQTGGSLRLSCVASGYTYSSARIGWFRQAPGKEREGVAAILTDGVTTYYADAVKGRFTISRDNAKNTVYLQMNSLKPEDTAMYYCAIRTSPYSGGWFRVSQYNGWGQGTQVTVSS
notes: as for B3
B10: anti-LDH VHH clone No. 428, protein A-fused type (VHH)
VHH: QVQLVESGGGLVQPGGSLRLSCAASGFSFSRSGMSWGRQAPGKGFEWVSRISSGGATWYADSVKGRFSISRDNAKNTVYLQLDSLKTEDTGMYYCAASDRSGSTYRGQGTQVTVSS
notes: as for B3

Assays:
[1] = target: glutathione S-transferase (GST); experiment: SPR (BIAcore 1000), GST immobilized on CM5, global fitting; mass transport limitation, value used as the lower limit
[2] = target: glutathione S-transferase (GST); experiment: SPR (BIAcore 1000), GST immobilized on CM5 at 2252 RU
[3] = target: glutathione S-transferase (GST); experiment: SPR (BIAcore 1000), GST immobilized on CM5, Langmuir model, global fitting
[4] = target: glutathione S-transferase (GST); experiment: SPR (BIAcore 1000), GST immobilized on CM5, from kinetic analysis
[5] = target: glutathione S-transferase (GST); experiment: cell-based or functional assay
[6] = target: glutathione S-transferase (GST); experiment: SPR (BIAcore 1000), GST immobilized on CM5 at 1750 RU
[7] = target: glutathione S-transferase (GST); experiment: SPR (BIAcore 1000), GST immobilized on CM5
[8] = target: T1, Bacillus stearothemophillus-derived lactic acid dehydrogenase (L-LACTIC DEHYDROGENASE) expressed in E. coli (Bacillus stearothemophillus, UniProt P00344 1-317); experiment: ELISA: LDH on the plate (PBS wells as negative control), culture supernatant with VHH-cp3, anti-cp3 monoclonal and anti-mouse IgG-POD, OD 492 nm
T1 construct: purity about 80%; also called LDH
Experimental: Similarly to anti-GST VHH, 60 clones and 36 clones were prepared as monoclones from the 3rd and 4th screenings, respectively. Next, ELISA was performed similarly as for anti-GST VHH.
LDH dissolved in PBS at 200 μg/mL was used to sensitize MaxiSorp™. Culture supernatant, 10-fold diluted mouse anti-cp3 monoclonal 3G3A8H1, and 1000-fold diluted goat anti-mouse IgG (H+L)-POD were added as primary, secondary, and tertiary antibodies, respectively, to this antigen-sensitized plate. As negative control, PBS was added instead of performing antigen sensitization.

[9] = target: T1, Bacillus stearothemophillus-derived …; experiment: cell-based or functional assay
[10] = target: T1, Bacillus stearothemophillus-derived …; experiment: SPR (BIAcore), LDH immobilized on CM5, 1:1 binding with mass transfer model
Experimental: (§1) […] on CM5 were activated using EDC/NHS (equal amounts of EDC and NHS of Amine Coupling Kit (BIAcore) were mixed) (8-minute contact time), and the chip was washed with HBS-EP (BIAcore). Twenty μg/mL of LDH (Sigma, […] diluted in 10 mM acetic acid (pH5.0)) was then added to the chip. After washing the chip with HBS-EP, 1 M ethanol amine (pH 8.5) was added to inactivate the remaining activated carboxyl groups. Following the inactivation, the chip was washed with HBS-EP to remove all LDHs that had not been covalently bound. The amount of immobilized antigens was calculated 5653 RU. When binding was evaluated by adding saturating amounts of clone No. 430 to the sensor, the value was near 800 RU.
(§2) All experiments were performed in HBS-EP at 25° C., and regeneration was performed under optimum conditions. Washing was performed for 1 min using 50 mM citric acid (pH2.5).
(§3) The binding was monitored by changing the LDH concentration (5×10⁻⁸ M to 4.0×10⁻⁷ M). […] Base-line correction was also taken into consideration. Values of ka (1/Ms), kd (1/S), and KD calculated based on kinetic analysis using global fitting (BIAevaluation Ver. 3) were as shown in Table 6.

[11] = target: T1, Bacillus stearothemophillus-derived …; experiment: SPR (BIAcore), LDH immobilized on CM5, (Langmuir) binding model
Experimental: as §1, §2, §3

[12] = target: T1, Bacillus stearothemophillus-derived …; experiment: SPR (BIAcore), LDH immobilized on CM5 at 5653 RU
Experimental: Procedure similar to that with GST was used to immobilize LDH on CM-sensor chip (Sensor Chip CM5, Research grade, BIAcore) using the amino coupling method.
as §1

T1 sequence (P00344 whole entry): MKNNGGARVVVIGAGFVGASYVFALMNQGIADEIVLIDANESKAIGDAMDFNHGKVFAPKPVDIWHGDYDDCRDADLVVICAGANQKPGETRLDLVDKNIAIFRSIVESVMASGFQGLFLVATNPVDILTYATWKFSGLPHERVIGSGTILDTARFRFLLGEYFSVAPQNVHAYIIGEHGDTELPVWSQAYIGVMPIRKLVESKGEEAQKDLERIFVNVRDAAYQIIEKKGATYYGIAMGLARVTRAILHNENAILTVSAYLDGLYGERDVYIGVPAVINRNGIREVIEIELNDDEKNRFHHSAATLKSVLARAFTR

Binder | binding result [8] | Ka [10] | Kd [10] | koff [10] | kon [10] | Ka [11] | Kd [11] | koff [11] | kon [11] | response at saturating amount (RU) [12] | LDH reaction rate in the direction of lactic acid production [9] | further results
B1 | – | – | – | – | – | – | – | – | – | – | – | koff [1]: 0.000915 s⁻¹; response at saturating amount (RU) [2]: 300 RU; kon [3]: 38100 M⁻¹ s⁻¹; Kd [4]: 24 nM; GST enzyme inhibitory activity (absorbance at 340 nm, CDNB and glutathione as substrates) [5]: > 1.5 µM
B2 | – | – | – | – | – | – | – | – | – | – | – | response at saturating amount (RU) [6]: 460 RU; koff [7]: 0.00255 s⁻¹; kon [7]: 25400 M⁻¹ s⁻¹; Kd [4]: 100 nM
B3 | binds | – | – | – | – | – | – | – | – | – | – | –
B4 | binds | – | – | – | – | – | – | – | – | – | – | –
B5 | binds | – | – | – | – | – | – | – | – | – | – | –
B6 | – | 4.04e+06 M⁻¹ | 248 nM | 0.00285 s⁻¹ | 11500 M⁻¹ s⁻¹ | 3.8e+06 M⁻¹ | 263 nM | 0.00258 s⁻¹ | 9820 M⁻¹ s⁻¹ | ~800 RU | – | IC50 of LDH enzyme inhibition [9]: ~400 nM
B7 | – | 5.83e+06 M⁻¹ | 171 nM | 0.00409 s⁻¹ | 23900 M⁻¹ s⁻¹ | 5.83e+06 M⁻¹ | 172 nM | 0.00409 s⁻¹ | 23900 M⁻¹ s⁻¹ | ~1400 RU | 10 fold | –
B8 | – | – | – | – | – | – | – | – | – | – | 10 fold | –
B9 | binds | – | – | – | – | – | – | – | – | – | – | –
B10 | – | 2.86e+06 M⁻¹ | 350 nM | 0.00516 s⁻¹ | 14800 M⁻¹ s⁻¹ | 2.81e+06 M⁻¹ | 356 nM | 0.00513 s⁻¹ | 14400 M⁻¹ s⁻¹ | ~500 RU | 5 fold | –

Reference: patent publication US20050037421A1 (INSTITUTE FOR ANTIBODIES, published 2005)
